The supplement of paper PMC9170038

Legend:
MS2 coat protein [1] = assay: apparent KD of MS2 coat protein, switch OFF state (with FMN for OFF switches, without FMN for ON switches); designed switch direction (-1 OFF switch, 1 ON switch): -1; higher = weaker reporter binding; conditions: FMN input: 0 or 200 uM; Eterna round: R93 (includes R88 designs)
Procedure, shortened: (§1)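 Titration buffer: 100 mM Tris-HCl pH 7.5, 80 mM KCl, 4 mM MgCl2, without or with constant ligand. Designed RNA switches transcribed on-chip from Illumina sequencing clusters received SNAP-549-labelled MS2 coat protein in twofold steps from 0.7 or 1.5 nM to 3 µM. Apparent KD is the median per design of fits to normalised cluster binding curves.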

MS2 coat protein [2] = assay: apparent KD of MS2 coat protein, switch ON state; designed switch direction (-1 OFF switch, 1 ON switch): -1; higher = weaker reporter binding; conditions: FMN input: 0 or 200 uM; Eterna round: R93 (includes R88 designs)
Procedure, shortened: as §1

Sequence | apparent KD of MS2 coat protein (MS2 coat protein [1]) | apparent KD of MS2 coat protein (MS2 coat protein [2])
AAAUCAGUAGGAUAUACGAUUUGGUACUAGACCGAGGAACCACAUGAGGAUCACCCAUGUAGAAGGACUAGAUA [EX2 Malc#21] | 12.9 nM | 17.2 nM
AAAUGACAUGAGGAUCACCCAUGUCAGGAUAUGACUUGAAAAAAAAAAAAAAAACAUGUCAGAAGGGACAUGGG [Design 50: Sub-opt FB] | 9.45 nM | 15.7 nM
AAAUGACAUGAGGAUCACCCAUGUCAGGAUAUGACUUGAAAAAUAAAAUAAAAACAUGUCAGAAGGGACAUGGA [Design 51: Sub-opt GB] | 20.8 nM | 23.9 nM
AAAUGACUAGGAUAUACAUGAGGAUCACCCAUGUGUUAAAAUAAAUACACAAAAGAAAGUAGAAGGAGUCAAAA [Ex 3 May 15] | 59.7 nM | 22.3 nM
AAAUUGUCAGGAUAUCUUAGAACUGUCAAAGACAGGAGCUAAGAGAAGGGACAUGAGGAUCACCCAUGUAAAAC [May 90] | 88.5 nM | 64 nM
AAAUUGUCAGGAUAUCUUAGAAUAGUCAAAGACUAGAGCUAAGAGAAGGGACAUGAGGAUCACCCAUGUAAAAC [May 91] | 56.6 nM | 61.8 nM
AACAAACAUGAGGAUCACCCAUGUCAGGAUAUGCAAACAACAAACAACAAACAACAAAGCAGAAGGGACAACAA [e1-3] | 25.1 nM | 19.9 nM
AACAAACAUGAGGAUCACCCAUGUCAGGAUAUGCAAACAACAAACAACAAACAACAAAGCAGAAGGGACGACAA [63%, Olong, 3] | 37.5 nM | 21.7 nM
AACAAUACAGGAUAUACAUGAGGAUCACCCAUGUGAGAAUUAAGUGGCGUACCACAAGGUAGAAGGGUAAUGGA [Ruby 2] | 34.7 nM | 22.4 nM
AACAGUACAGGAUAUACAUGAGGAUCACCCAUGUAAAAAUAAAAGGGAAACUCAAAAAGUAGAAGGGUACUGGA [Moding Maslow revisited (73) 13] | 78.6 nM | 117 nM
AACAGUACAGGAUAUACAUGAGGAUCACCCAUGUAGGGAUAAAGUGGCGUACCACAAAGUAGAAGGGUACUGGA [Moding Maslow revisited (73) 4] | 142 nM | 30.6 nM
AACAGUACAGGAUAUACAUGAGGAUCACCCAUGUGAAAAUUAAGUGGCGUACCACAAUGUAGAAGGGUACUGGA [Moding Maslow Revisited (73) 24] | 83.7 nM | 110 nM
AACAGUACAGGAUAUACAUGAGGAUCACCCAUGUGAGAAUAAAGUGGCGUACCACAAAGUAGAAGGGUACUGGA [Mat - Exclusion 3 - JL mod - D20] | 148 nM | 26.7 nM
AACAUGUAAGGAUAUAGAAGAAAAGAAAAGAAAGAAAAGAACUAGAAGGUACAUGAGGAUCACCCAUGUAAGAA [EteRNA is fun!] | 16.2 nM | 33.1 nM
AACAUGUAAGGAUAUGAAAGAAAAGAAAAGAAAGAAAAGAAUCAGAAGGUACAUGAGGAUCACCCAUGUAAGAA [EteRNA is fun!] | 26.7 nM | 34.7 nM
AACCAACAUGAGGAUCACCCAUGUCAGGAUAUGCAAAUAACAAACAACAAACAACAAAGCAGAAGGGACAACAA [Mat - Exclusion 1 - Eli mod - D50] | 20.5 nM | 15.4 nM
AACUAACAUGAGGAUCACCCAUGUCAGGAUAUGCAAAGAACGAUCGAACGAACGAUAAGCAGAAGGGACAAAAA [Amethyst 96] | 42.1 nM | 29.8 nM
AACUGACAUGAGGAUCACCCAUGUCAGGAUAUGACUUGAAAAAUAAAAUAAAAACAUGUCAGAAGGGACAUGGG [Design 54 :P Sub-opt H] | 18.9 nM | 20.2 nM
AACUGACAUGAGGAUCACCCAUGUCAGGAUAUGACUUGACGAAAAAAAACACGUCAUGUCAGAAGGGACAUGGA [Design 89: Sub-opt Z] | 37.3 nM | 21.8 nM
AACUGACAUGAGGAUCACCCAUGUCAGGAUAUGACUUGAUAGAAAAUAAAAUAUCAUGUCAGAAGGGACAUGAA [Design 61: Sub-opt KB] | 12.4 nM | 14.3 nM

Sequence | apparent KD of MS2 coat protein (MS2 coat protein [1]) | apparent KD of MS2 coat protein (MS2 coat protein [2])
AACUGACAUGAGGAUCACCCAUGUCAGGAUAUGAUUUGACGAAAUAAAAUAAGUCAUAUCAGAAGGGACAUGGG [Design 83: Sub-opt VB] | 21.2 nM | 26.2 nM
AACUGCGCAGGAUAUACAUGAGGAUCACCCAUGUAAAGAAAAGAAAGAUCCGAAGAAAGUAGAAGGGCGUGGAA [Variant 2 of Mod 1 of Ex3 sub 3, by Tesla's Dusciple Round 1] | 56.3 nM | 43.2 nM
AAGAAAGCAGGAUAUACAAGAAAGAAAGAAAAGAAAAGAAAACAUGAGGAUCACCCAUGUAGAAGGGCUUAGAA [EteRNA is fun!] | 23.1 nM | 27.9 nM
AAGAAAGCAGGAUAUACAUGAGGAUCACCCAUGUAAAAGAAAGAAAGGGAAAAGAAAAGUAGAAGGGCUAAGAA [Usermaatre-setepenre Pami] | 26.1 nM | 23.6 nM
AAGAAAGGAGGAUAUACAAAAUAAAAGAAAAGAAAGAAAGAACAUGAGGAUCACCCAUGUAGAAGGCCUAAGAA [Merhotepre Sobekhotep V] | 14.4 nM | 23.5 nM
AAGAACAGAGGAUAUACAUGAAAGAAAGAAAAGAAAAGAAAACAUGAGGAUCACCCAUGUAGAAGGCUGAAGAA [EteRNA is fun!] | 25.1 nM | 28.1 nM
AAGAACUCAGGAUAUGCUAAAGAAAUAAAAAUAAAUAAAGAACAUGAGGAUCACCCAUGUAGAAGGGAGAAGAA [Merkawre Sobekhotep VII] | 46.2 nM | 76.4 nM
AAGAAGAGAGGAUAUACAUGAGGAUCACCCAUGUAAAAGAAAGAAAAGGGAAAGAAAAGUAGAAGGCUCAAGAA [Aakheperrure Amenhotep II] | 38.3 nM | 26.4 nM
AAGAAGGGAGGAUAUACAAAAUAAAAGAAAAGAAAGAAAGAACAUGAGGAUCACCCAUGUAGAAGGCUCAAGAA [Mersekhemre Ined] | 24.9 nM | 37.2 nM
AAGAAGUCAGGAUAUCGAAGACAGACGAAAAGUCUGUCAAACGAGAAGGGACAUGAGGAUCACCCAUGUAAAGA [Mat - Exaclusion 4 - Eli mod - D73] | 61 nM | 63.1 nM
AAGAAGUCAGGAUAUGCCAAAGGUCACGAAAGUGACAAAGGGCAGAAGGGACAUGAGGAUCACCCAUGUAAAGA [Opal 2] | 56.7 nM | 47.2 nM
AAGAAGUCAGGAUAUGCGAAUCGAUAAGAACGUCAAAGAAAGCAGAAGGGACAUGAGGAUCACCCAUGUAAAGA [Opal 39] | 27.6 nM | 30.7 nM
AAGAAGUCAGGAUAUGCUAAAGAAAUGAAAAGAAAGAAAGAACAUGAGGAUCACCCAUGUAGAAGGGACAAGAA [Dedumose I] | 38.3 nM | 47.1 nM
AAGAAGUGAGGAUAUACAUGAGGAUCACCCAUGUAAAAGAAAGAAAAGGGAAAGAAAAGUAGAAGGCACAAGAA [Maatkare Hatshepsut] | 58.3 nM | 36.2 nM
AAGAAGUGAGGAUAUACAUGAGGAUCACCCAUGUAAAGAAGAAGAGGAGAGAAUAAAGGUAGAAGGCACAAGAA [JR_Exclusion3_Sub4] | 39.6 nM | 33.6 nM
AAGAAGUGAGGAUAUGUCUGUGCGAAAAAAAAAAAGUGCAGACAGAAGGCACAUGAGGAUCACCCAUGUGGAAA [Florian 65% 5] | 29.1 nM | 27.8 nM
AAGAAUCGAGGAUAUACAAAAUAAAAGAAAAGAAAGAAAGAACAUGAGGAUCACCCAUGUAGAAGGCGAAAGAA [Khaneferre Sobekhotep IV] | 21.9 nM | 30.3 nM
AAGAAUGCAGGAUAUACAUGAAAGAAAGAAAAGAAAAGAAAACAUGAGGAUCACCCAUGUAGAAGGGCAUAGAA [EteRNA is fun!] | 44.1 nM | 26.8 nM
AAGACUACAGGAUAUACAUGAGGAUCACCCAUGUAACUGACAAGUAGAGGACGGAGAAGUAGAAGGGUAGUCAA [Ruby 35] | 26.7 nM | 13.6 nM
AAGAGUACAGGAUAUACAUGAAAAGAGUCGAAAGACUCAAAACAUGAGGAUCACCCAUGUAGAAGGGUACUCAA [Hyphema Seclusion Mod 62% 2] | 98.9 nM | 137 nM
